Results reported in patent US20240402174A1 (Takeda / Millennium, published 2024).

How the values were obtained:
Test in all cases: multiplex microsphere immunoassay
[1] = target: T1, GI.1 VLP (norovirus Hu/GI.1/Norwalk/1968/US, UniProt Q83884 1-530)
T1 construct: also called GI.1 Norwalk; GI.I/Norwalk VLP
T1 sequence: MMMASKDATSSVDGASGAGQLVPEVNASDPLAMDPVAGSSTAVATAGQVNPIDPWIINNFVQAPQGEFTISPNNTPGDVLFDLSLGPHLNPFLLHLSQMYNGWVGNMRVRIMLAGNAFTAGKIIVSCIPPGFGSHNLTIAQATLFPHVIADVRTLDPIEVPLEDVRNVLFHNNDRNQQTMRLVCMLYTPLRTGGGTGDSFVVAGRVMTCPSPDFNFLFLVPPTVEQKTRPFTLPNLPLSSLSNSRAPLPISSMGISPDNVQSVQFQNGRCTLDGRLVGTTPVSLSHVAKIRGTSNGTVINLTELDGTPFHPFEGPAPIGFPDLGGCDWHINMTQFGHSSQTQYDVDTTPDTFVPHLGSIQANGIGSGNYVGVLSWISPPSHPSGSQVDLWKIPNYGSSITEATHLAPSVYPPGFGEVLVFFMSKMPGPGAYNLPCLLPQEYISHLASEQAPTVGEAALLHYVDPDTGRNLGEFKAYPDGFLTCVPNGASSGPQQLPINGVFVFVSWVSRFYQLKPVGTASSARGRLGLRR

[2] = target: T2, GI.2 VLP (norovirus Hu/GI.2/Jingzhou/2013401/CHN, UniProt Q04542 1-546)
T2 construct: also called GI.2 Jingzhou
T2 chain: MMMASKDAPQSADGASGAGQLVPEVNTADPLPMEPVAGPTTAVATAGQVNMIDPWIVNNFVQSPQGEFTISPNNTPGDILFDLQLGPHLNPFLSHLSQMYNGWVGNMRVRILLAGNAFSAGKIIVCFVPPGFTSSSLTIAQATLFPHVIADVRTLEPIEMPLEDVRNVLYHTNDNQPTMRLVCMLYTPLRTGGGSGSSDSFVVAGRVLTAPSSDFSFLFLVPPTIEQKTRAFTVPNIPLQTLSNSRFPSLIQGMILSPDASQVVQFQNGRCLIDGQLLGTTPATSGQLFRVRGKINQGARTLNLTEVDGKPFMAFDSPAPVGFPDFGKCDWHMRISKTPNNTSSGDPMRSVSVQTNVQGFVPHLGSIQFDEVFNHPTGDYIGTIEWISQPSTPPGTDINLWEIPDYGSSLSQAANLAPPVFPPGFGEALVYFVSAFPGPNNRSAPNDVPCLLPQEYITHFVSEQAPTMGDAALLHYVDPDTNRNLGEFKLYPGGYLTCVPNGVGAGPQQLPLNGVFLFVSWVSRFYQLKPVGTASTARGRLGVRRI

[3] = target: T3, GI.3 VLP (norovirus Hu/GI.3/JKPG_883/SWE/2007)
T3 construct: also called GI.3 Sweden
T3 chain: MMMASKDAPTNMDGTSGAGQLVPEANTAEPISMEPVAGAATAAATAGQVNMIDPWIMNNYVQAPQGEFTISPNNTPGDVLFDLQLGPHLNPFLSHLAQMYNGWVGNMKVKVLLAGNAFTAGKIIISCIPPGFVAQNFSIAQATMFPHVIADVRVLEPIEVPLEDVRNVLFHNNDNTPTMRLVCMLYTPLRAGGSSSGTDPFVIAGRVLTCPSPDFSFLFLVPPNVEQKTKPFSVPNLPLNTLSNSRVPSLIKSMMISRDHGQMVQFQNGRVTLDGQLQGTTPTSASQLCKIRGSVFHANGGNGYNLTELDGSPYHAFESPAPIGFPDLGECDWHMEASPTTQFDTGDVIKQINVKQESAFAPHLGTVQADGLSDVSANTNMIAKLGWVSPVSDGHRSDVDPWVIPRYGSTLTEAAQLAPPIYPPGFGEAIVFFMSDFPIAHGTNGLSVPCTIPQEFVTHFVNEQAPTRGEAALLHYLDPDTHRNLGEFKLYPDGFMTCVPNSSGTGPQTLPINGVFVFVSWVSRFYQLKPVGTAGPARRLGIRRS

[4] = target: T4, GI.6 VLP (norovirus Hu/GI.6/TCH-099/USA/2003)
T4 construct: also called GI.6 USA
T4 chain: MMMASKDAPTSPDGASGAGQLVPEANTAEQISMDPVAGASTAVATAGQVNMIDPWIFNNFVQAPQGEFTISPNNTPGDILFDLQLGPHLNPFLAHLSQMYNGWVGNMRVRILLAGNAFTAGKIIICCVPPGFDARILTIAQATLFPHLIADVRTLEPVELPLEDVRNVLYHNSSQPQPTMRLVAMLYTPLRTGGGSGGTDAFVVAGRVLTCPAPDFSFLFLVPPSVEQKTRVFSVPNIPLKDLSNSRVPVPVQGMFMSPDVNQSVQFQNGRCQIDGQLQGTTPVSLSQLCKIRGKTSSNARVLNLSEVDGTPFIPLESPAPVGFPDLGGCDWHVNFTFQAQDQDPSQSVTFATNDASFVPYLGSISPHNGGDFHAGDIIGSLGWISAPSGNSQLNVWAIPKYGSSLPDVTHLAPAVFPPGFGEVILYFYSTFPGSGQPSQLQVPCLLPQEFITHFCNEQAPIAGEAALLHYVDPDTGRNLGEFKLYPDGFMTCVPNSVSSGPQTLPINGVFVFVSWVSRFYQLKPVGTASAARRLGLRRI

[5] = target: T5, GI.7 VLP (norovirus Hu/GI.7/Providence191/2010/USA)
T5 construct: also called GI.7 Providence
T5 chain: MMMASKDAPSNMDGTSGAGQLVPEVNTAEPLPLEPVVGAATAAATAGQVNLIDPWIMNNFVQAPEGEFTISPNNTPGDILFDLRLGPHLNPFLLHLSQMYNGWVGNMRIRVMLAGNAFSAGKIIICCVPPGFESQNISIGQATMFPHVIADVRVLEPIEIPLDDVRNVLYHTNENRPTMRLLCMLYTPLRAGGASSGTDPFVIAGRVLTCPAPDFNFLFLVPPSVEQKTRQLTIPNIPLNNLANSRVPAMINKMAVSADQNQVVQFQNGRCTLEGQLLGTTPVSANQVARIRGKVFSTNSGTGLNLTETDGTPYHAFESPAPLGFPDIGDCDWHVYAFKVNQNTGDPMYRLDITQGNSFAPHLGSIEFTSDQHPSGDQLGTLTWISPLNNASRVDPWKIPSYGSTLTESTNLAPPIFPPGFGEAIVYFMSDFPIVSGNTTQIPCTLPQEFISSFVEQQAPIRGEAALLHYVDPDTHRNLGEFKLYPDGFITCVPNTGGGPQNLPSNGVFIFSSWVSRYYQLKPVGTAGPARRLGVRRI

Measured: binding result

B1: human mAb 1431 (antibody, V domains shown)
VH: QVQLVQSGGGLVQPGGSLRLSCAASGFAFSNHGMHWVRQAPGKGLEWLSYISGSTGAIHYANSVKGRFTISRDNARNSLDLQMNSLGDEDTAVYYCARDGPRPDGTGYAGPSNDYWGQGTLVSVSS
VL: EIVLTQSPASLSLSPGERATLSCKASRSISIYLAWYQQKPGQAPRLLIYDASYRAIGIPARFSGSGSGTDFTLTISNLEPEDFAVYYCQHRSSWPALTFGGGTKVEI
notes: also called A1431
no binding: all assays above
